Results reported in US20240392004A1 (IMMUNOWAKE, published 2024).
Where a chain is given by its changes, count along the chain named. Numbers in names are those of the source.

B1: IL-12(E59A/F60A)/IL-2(L18R/Q22E/R38D/K43E/E61R)/CD155-Fc (Fc fusion)
chain 1: WPPPGTGDVVVQAPTQVPGFLGDSVTLPCYLQVPNMEVTHVSQLTWARHGESGSMAVFHQTQGPSYSESKRLEFVAARLGAELRNASLRMFGLRVEDEGNYTCLFVTFPQGSRSVDIWLRVLAKPQNTAEVQKVQLTGEPVPMARCVSTGGRPPAQITWHSDLGGMPNTSQVPGFLSGTVTVTSLWILVPSSQVDGKNVTCKVEHESFEKPQLLTVNLTVYYPPEVSISGYDNNWYLGQNEATLTCDARSNPEPTGYNWSTTMGPLPPFAVAQGAQLLIRPVDKPINTTLICNVTNALGARQAELTVQVKEGPPSEHSGISRNGGGGSGGGIWELKKDVYVVELDWYPDAPGEMVVLTCDTPEEDGITWTLDQSSEVLGSGKTLTIQVKAAGDAGQYTCHKGGEVLSHSLLLLHKKEDGIWSTDILKDQKEPKNKTFLRCEAKNYSGRFTCWWLTTISTDLTFSVKSSRGSSDPQGVTCGAATLSAERVRGDNKEYEYSVECQEDSACPAAEESLPIEVMVDAVHKLKYENYTSSFFIRDIIKPDPPKNLQLKPLKNSRQVEVSWEYPDTWSTPHSYFSLTFCVQVQGKSKREKKDRVFTDKTSATVICRKNASISVRAQDRYYSSSWSEWASVPCSGGGGSGGGSGGGGSRNLPVATPDPGMFPCLHHSQNLLRAVSNMLQKARQTLEFYPCTSEEIDHEDITKDKTSTVEACLPLELTKNESCLNSRETSFITNGSCLASRKTSFMMALCLSSIYEDLKMYQVEFKTMNAKLLMDPKRQIFLDQNMLAVIDELMQALNFNSETVPQKSSLEEPDFYKTKIKLCILLHAFRIRAVTIDRVMSYLNASGGGGSGGGDKTHTCPPCPAPEDEGGPSVFLFPPKPKDTLMISRTPEVTCVVVDVSHEDPEVKFNWYVDGVEVHNAKTKPREEQYNSTYRVVSVLTVLHQDWLNGKEYKCKVSNKALPAPIEKTISKAKGQPREPQVYVYPPSREEMTKNQVSLTCLVKGFYPSDIAVEWESNGQPENNYKTTPPVLDEDGSFALVSKLTVDKSRWQQGNVFSCSVMHEALHNHYTQKSLSLSPGK
chain 2: WPPPGTGDVVVQAPTQVPGFLGDSVTLPCYLQVPNMEVTHVSQLTWARHGESGSMAVFHQTQGPSYSESKRLEFVAARLGAELRNASLRMFGLRVEDEGNYTCLFVTFPQGSRSVDIWLRVLAKPQNTAEVQKVQLTGEPVPMARCVSTGGRPPAQITWHSDLGGMPNTSQVPGFLSGTVTVTSLWILVPSSQVDGKNVTCKVEHESFEKPQLLTVNLTVYYPPEVSISGYDNNWYLGQNEATLTCDARSNPEPTGYNWSTTMGPLPPFAVAQGAQLLIRPVDKPINTTLICNVTNALGARQAELTVQVKEGPPSEHSGISRNGGGSGAPTSSSTKKTQLQLEHLRLDLEMILNGINNYKNPKLTDMLTFEFYMPKKATELKHLQCLERELKPLEEVLNLAQSKNFHLRPRDLISNINVIVLELKGSETTFMCEYADETATIVEFLNRWITFCQSIISTLTGGGGSGGGDKTHTCPPCPAPEKKGGPSVFLFPPKPKDTLMISRTPEVTCVVVDVSHEDPEVKFNWYVDGVEVHNAKTKPREEQYNSTYRVVSVLTVLHQDWLNGKEYKCKVSNKALPAPIEKTISKAKGQPREPQVYVLPPSREEMTKNQVSLLCLVKGFYPSDIAVEWESNGQPENRYMTWPPVLDSDGSFFLYSKLTVDKSRWQQGNVFSCSVMHEALHNHYTQKSLSLSPGK
B2: IL-12(E59A/F60A)/IL-2(L18R/Q22E/R38D/K43E/E61R/Q126T)/CD155-Fc (Fc fusion)
chain 1: B1 chain 1
chain 2: B1 chain 2 with Q454T
B3: IL-12(E59A/F60A)/IL-2(R38D/K43E/E61R/Q126T)/CD155-Fc (Fc fusion)
chain 1: B1 chain 1
chain 2: B1 chain 2 with R346L, E350Q, Q454T
B4: IL-12(E59A/F60A)/IL-2(L18R/Q22E/R38D/K43E/E61R/Q126T/S130R)/CD155-Fc (Fc fusion)
chain 1: B1 chain 1
chain 2: B1 chain 2 with Q454T, S458R
B5: CD155-Fc/IL-12(E59A/F60A) (IL-12 at C'), printed in Table 21 as IL-12(E59A/F60A)/CD155-Fc (Fc fusion)
chain 1: WPPPGTGDVVVQAPTQVPGFLGDSVTLPCYLQVPNMEVTHVSQLTWARHGESGSMAVFHQTQGPSYSESKRLEFVAARLGAELRNASLRMFGLRVEDEGNYTCLFVTFPQGSRSVDIWLRVLAKPQNTAEVQKVQLTGEPVPMARCVSTGGRPPAQITWHSDLGGMPNTSQVPGFLSGTVTVTSLWILVPSSQVDGKNVTCKVEHESFEKPQLLTVNLTVYYPPEVSISGYDNNWYLGQNEATLTCDARSNPEPTGYNWSTTMGPLPPFAVAQGAQLLIRPVDKPINTTLICNVTNALGARQAELTVQVKEGPPSEHSGISRNGGGGSGGGDKTHTCPPCPAPEDEGGPSVFLFPPKPKDTLMISRTPEVTCVVVDVSHEDPEVKFNWYVDGVEVHNAKTKPREEQYNSTYRVVSVLTVLHQDWLNGKEYKCKVSNKALPAPIEKTISKAKGQPREPQVYVYPPSREEMTKNQVSLTCLVKGFYPSDIAVEWESNGQPENNYKTTPPVLDEDGSFALVSKLTVDKSRWQQGNVFSCSVMHEALHNHYTQKSLSLSPGKGGGGSGGGIWELKKDVYVVELDWYPDAPGEMVVLTCDTPEEDGITWTLDQSSEVLGSGKTLTIQVKAAGDAGQYTCHKGGEVLSHSLLLLHKKEDGIWSTDILKDQKEPKNKTFLRCEAKNYSGRFTCWWLTTISTDLTFSVKSSRGSSDPQGVTCGAATLSAERVRGDNKEYEYSVECQEDSACPAAEESLPIEVMVDAVHKLKYENYTSSFFIRDIIKPDPPKNLQLKPLKNSRQVEVSWEYPDTWSTPHSYFSLTFCVQVQGKSKREKKDRVFTDKTSATVICRKNASISVRAQDRYYSSSWSEWASVPCSGGGGSGGGSGGGGSRNLPVATPDPGMFPCLHHSQNLLRAVSNMLQKARQTLEFYPCTSEEIDHEDITKDKTSTVEACLPLELTKNESCLNSRETSFITNGSCLASRKTSFMMALCLSSIYEDLKMYQVEFKTMNAKLLMDPKRQIFLDQNMLAVIDELMQALNFNSETVPQKSSLEEPDFYKTKIKLCILLHAFRIRAVTIDRVMSYLNAS
chain 2: WPPPGTGDVVVQAPTQVPGFLGDSVTLPCYLQVPNMEVTHVSQLTWARHGESGSMAVFHQTQGPSYSESKRLEFVAARLGAELRNASLRMFGLRVEDEGNYTCLFVTFPQGSRSVDIWLRVLAKPQNTAEVQKVQLTGEPVPMARCVSTGGRPPAQITWHSDLGGMPNTSQVPGFLSGTVTVTSLWILVPSSQVDGKNVTCKVEHESFEKPQLLTVNLTVYYPPEVSISGYDNNWYLGQNEATLTCDARSNPEPTGYNWSTTMGPLPPFAVAQGAQLLIRPVDKPINTTLICNVTNALGARQAELTVQVKEGPPSEHSGISRNGGGGSGGGDKTHTCPPCPAPEKKGGPSVFLFPPKPKDTLMISRTPEVTCVVVDVSHEDPEVKFNWYVDGVEVHNAKTKPREEQYNSTYRVVSVLTVLHQDWLNGKEYKCKVSNKALPAPIEKTISKAKGQPREPQVYVLPPSREEMTKNQVSLLCLVKGFYPSDIAVEWESNGQPENRYMTWPPVLDSDGSFFLYSKLTVDKSRWQQGNVFSCSVMHEALHNHYTQKSLSLSPGK

Assays:
Assay in all cases: cell-based or functional assay
[1] = target: T1, human IL-2 receptor (IL-2Rα, IL-2Rβ, IL-2Rγ) (human, UniProt P01589 22-272; P14784 27-551; P31785 23-369)
T1 sequence (looked up) 1: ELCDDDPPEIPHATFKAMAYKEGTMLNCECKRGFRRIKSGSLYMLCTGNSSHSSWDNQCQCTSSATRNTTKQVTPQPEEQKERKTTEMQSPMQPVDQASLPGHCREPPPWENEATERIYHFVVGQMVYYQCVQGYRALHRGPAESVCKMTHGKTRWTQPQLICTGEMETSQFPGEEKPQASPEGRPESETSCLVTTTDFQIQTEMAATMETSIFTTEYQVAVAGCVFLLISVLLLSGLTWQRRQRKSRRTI
T1 sequence (looked up) 2: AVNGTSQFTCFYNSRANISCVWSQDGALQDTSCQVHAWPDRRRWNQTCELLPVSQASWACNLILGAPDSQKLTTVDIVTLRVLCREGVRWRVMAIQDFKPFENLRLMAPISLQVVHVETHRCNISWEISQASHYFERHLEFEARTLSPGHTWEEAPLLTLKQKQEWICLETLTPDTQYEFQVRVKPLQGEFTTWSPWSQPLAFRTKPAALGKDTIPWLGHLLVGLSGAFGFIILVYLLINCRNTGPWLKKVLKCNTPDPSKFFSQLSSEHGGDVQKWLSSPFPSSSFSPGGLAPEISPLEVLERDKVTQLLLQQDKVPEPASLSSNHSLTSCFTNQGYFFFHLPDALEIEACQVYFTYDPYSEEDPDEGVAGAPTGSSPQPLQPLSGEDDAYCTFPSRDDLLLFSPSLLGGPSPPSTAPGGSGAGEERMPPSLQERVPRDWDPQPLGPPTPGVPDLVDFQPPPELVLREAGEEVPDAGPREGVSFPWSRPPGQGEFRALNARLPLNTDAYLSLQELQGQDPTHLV
T1 sequence (looked up) 3: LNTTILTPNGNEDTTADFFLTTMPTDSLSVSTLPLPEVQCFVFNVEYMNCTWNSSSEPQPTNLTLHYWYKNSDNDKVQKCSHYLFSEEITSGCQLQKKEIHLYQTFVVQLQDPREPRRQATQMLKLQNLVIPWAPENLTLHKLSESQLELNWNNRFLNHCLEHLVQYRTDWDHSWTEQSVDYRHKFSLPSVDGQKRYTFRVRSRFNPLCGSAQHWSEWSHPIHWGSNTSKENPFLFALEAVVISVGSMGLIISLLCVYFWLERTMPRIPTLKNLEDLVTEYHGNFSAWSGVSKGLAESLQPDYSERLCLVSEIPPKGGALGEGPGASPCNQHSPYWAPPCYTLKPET

[2] = target: human IL-12 receptor complex (IL-12Rβ1 and IL-12Rβ2) (human, UniProt P42701 24-662; Q99665 24-862)
[3] = target: T2, human TIGIT on HEK-Blue reporter cells (human, UniProt Q495A1 22-244)
T2 sequence (looked up): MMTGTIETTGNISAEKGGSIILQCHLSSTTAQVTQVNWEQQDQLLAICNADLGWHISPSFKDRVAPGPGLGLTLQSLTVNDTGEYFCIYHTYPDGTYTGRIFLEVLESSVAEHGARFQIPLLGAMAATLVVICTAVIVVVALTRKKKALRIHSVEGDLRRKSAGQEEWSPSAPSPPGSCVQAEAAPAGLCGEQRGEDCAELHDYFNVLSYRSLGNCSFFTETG

Sequence of human IL-12 receptor complex (IL-12Rβ1 and IL-12Rβ2) (Q99665 24-862, chain 2 of 2, other chains not shown): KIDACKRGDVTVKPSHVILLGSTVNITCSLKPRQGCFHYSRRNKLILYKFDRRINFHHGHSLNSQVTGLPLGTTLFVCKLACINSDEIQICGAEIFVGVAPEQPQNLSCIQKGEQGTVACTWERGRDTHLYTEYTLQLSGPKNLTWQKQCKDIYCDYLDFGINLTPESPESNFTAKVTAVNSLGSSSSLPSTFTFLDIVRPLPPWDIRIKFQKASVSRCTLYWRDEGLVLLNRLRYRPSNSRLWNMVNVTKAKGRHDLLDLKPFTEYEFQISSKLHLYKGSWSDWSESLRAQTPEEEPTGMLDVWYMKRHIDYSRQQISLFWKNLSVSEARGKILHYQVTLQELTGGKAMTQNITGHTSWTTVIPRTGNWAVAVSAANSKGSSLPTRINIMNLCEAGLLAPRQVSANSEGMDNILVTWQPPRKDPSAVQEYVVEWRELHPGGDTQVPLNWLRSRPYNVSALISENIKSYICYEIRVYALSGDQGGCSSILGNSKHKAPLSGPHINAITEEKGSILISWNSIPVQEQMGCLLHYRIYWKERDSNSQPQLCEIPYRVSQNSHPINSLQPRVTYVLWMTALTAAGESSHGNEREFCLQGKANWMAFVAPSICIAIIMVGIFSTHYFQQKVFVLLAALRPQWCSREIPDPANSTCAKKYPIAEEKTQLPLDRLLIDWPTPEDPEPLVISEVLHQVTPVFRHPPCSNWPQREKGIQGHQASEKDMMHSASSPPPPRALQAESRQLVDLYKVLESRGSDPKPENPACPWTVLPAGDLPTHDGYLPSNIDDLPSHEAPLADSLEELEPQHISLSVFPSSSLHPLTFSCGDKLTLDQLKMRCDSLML

Binder	IL-2 signal transduction, HEK-IL-2 [1]	IL-12 signal transduction, HEK-IL-12 [2]	IL-2 signal transduction, HEK-IL-2-TIGIT [3]	IL-12 signal transduction, HEK-IL-12-TIGIT [3]
B1	12%	< 0.2%	78%	21%
B2	2%	< 0.2%	20%	19%
B3	4%	< 0.2%	35%	17%
B4	< 0.1%	< 0.2%	< 0.1%	15%
B5	< 0.1%	2%	< 0.1%	35%
